Experimental data reported in CN112552399A (HENGYI BIOMEDICAL TECH SHANGHAI CO LTD, dated 2021).

Biological target: T1, SARS-CoV-2 S1亚基 (SARS-CoV-2, UniProt P0DTC2 16-685)
T1 construct: also called S1蛋白
Assay: ELISA, coated S1, antibody detected with HRP goat anti-human IgG

Binder | binding result
抗体37G2 (antibody, V domains shown) VH: QVQLVQSGAEVKKPGSSVKVSCKASGGTFSSYAITWVRQAPGQGLEWMGGIIPIFGTANFAQKFQGRVTITADESTSTAYMELSSLRSEDTAVYYCAHLGGFADPFDYWGQGTLVTVSS VL: EIVLTQSPATLSLSPGERATLSCRASQSVSNYLAWYQQKAGQAPRVLIYDAFNRATGIPARFSGSGSGTDFTLTISSLEPEDFAVYYCQQRSNWPPRITFGQGTRLEIK | no binding (tested: 1 μg/mL)
抗体31C2 (antibody, V domains shown) VH: QVQLVQSGAEVKKPGSSVKVSCKASGGTFSSYAISWVRQAPGQGLEWMGGIIPIFGTTNYAQKFQGRVTITADESTSTAYMELNSLRSEDTAVYYCAGRSAYGDKGYYFDYWGQGTLVTVSS VL: EIVLTQSPATLSLSPGERATLSCRASQSVSNFLAWYQQKPGQAPRLLIYDASNRATGIPARFSGSGSGTDFTLTISSLQPEDFAVYYCQQRSNWPPQETFGQGTKVEIK | no binding (tested: 1 μg/mL)
